The target in assay [1] is T1, recombinant human IL4Rα-his (human, UniProt P24394 26-231, limits assumed, biotin-labeled in the capture ELISA).
T1 construct: In-house made; not shown: His tag at the C-terminus
The assay can be described thus: capture ELISA: antibody captured on anti-human IgG Fc F(ab')2, biotin human IL4Rα-his, SA-HRP. Here is the method:
Briefly, 96-well plates were coated with 2 μg/mL AffiniPure F(ab′)₂ Fragment Goat Anti-Human IgG, Fey fragment specific (Jackson Immuno Research, Cat #109-006-008) in PBS, 100 μL/well, overnight at 4° C. Plates were washed once with wash buffer (PBS+0.05% w/v Tween-20, PBST) and then blocked with 200 μL/well blocking buffer (5% w/v non-fatty milk in PBST) for 2 hours at 37° C. […] After a final wash, plates were incubated with 100 μL/well ELISA substrate TMB (Innoreagents, Cat #TMB-S-002). The reaction was stopped in 10 minutes at 25° C. with 50 μL/well 1M H₂SO₄, and the absorbance was read on a microplate reader using dual wavelength mode with 450 nm for TMB and 630 nm as the reference wavelength. Data was analyzed using Graphpad Prism and EC₅₀ values were reported.
A general note: In an ELISA, binding on a coated surface is turned into a signal by an enzyme label.

Assay [2] addresses T2, human IL4Rα expressed on 293F-IL4Rα cell surface (human, UniProt P24394 26-825).
T2 construct: whole, on cells; also called human IL4Rα-expressing cells; cell surface IL4R
The assay can be described thus: cell-based blocking FACS on 293F-IL4Rα cells; blocked ligand biotin human IL4.

B1: BSI-502-001 (bispecific antibody, human IgG1, kappa)
heavy: EVQLVESGGGLVQPGGSLRLSCAASGFTFSTYGMSWVRQAPGKGLVWVATINSNGGSTSYPDSVKGRFTISRDNAKNTLYLQMNSLRAEDTAVYYCARFFRFRNAMDYWGQGTLVTVSSASTKGPSVFPLAPSSKSTSGGTAALGCLVKDYFPEPVTVSWNSGALTSGVHTFPAVLQSSGLYSLSSVVTVPSSSLGTQTYICNVNHKPSNTKVDKKVEPKSCDKTHTCPPCPAPEAQGGPSVFLFPPKPKDTLYITREPEVTCVVVDVSHEDPEVKFNWYVDGVEVHNAKTKPREEQYNSTYRVVSVLTVLHQDWLNGKEYKCQVSNKALPAPIEKTISKAKGQPREPQVYTLPPSRDELTKNQVSLTCLVKGFYPSDIAVEWESNGQPENNYKTTPPVLDSDGSFFLYSKLTVDKSRWQQGNVFSCSVMHEALHNHYTQKSLSLSPGKGGGGSGGGGSQVQLVQSGAEVKKPGASVKVSCKASGYTFTTYWMHWVRQAPGQGLEWMGVIDPSDSDTTYNQKFKGRVTMTRDTSTSTVYMELSSLRSEDTAVYYCTRSLDGYYDYWGQGTLVTVSSGGGGSGGGGSGGGGSGGGGSDIQMTQSPSSLSASVGDRVTITCRPTENIYSYLAWYQQKPGKAPKLLIYFARTLAEGVPSRFSGSGSGTDFTLTISSLQPEDFATYYCQHHYGTPWTFGGGTKVEIK
light: DIQMTQSPSSLSASVGDRVTITCRTSENIYSYLAWYQQKPGKAPKFLVYNAKTLAEGVPSRFSGSGSGTDFTLTISSLQPEDFATYYCQHYYGPPTWTFGQGTKVEIKRTVAAPSVFIFPPSDEQLKSGTASVVCLLNNFYPREAKVQWKVDNALQSGNSQESVTEQDSKDSTYSLSSTLTLSKADYEKHKVYACEVTHQGLSSPVTKSFNRGEC
notes: huC2C1A1A1-V15 IgG with an anti-TSLP scFv (hu1C5F12E9-V8, VH-VL) at the C-terminus of the heavy chain
As for B1, the EC50 in assay [1] was determined as 21.8 pM. The IC50 in assay [2] worked out at 137 pM.

B2: BSI-502-003 (bispecific antibody, human IgG1, kappa)
heavy: EVQLVESGGGLVQPGGSLRLSCAASGFTFSTYGMSWVRQAPGKGLVWVATINSNGGSTSYPDSVKGRFTISRDNAKNTLYLQMNSLRAEDTAVYYCARFFRFRNAMDYWGQGTLVTVSSGGGGSGGGGSGGGGSGGGGSDIQMTQSPSSLSASVGDRVTITCRTSENIYSYLAWYQQKPGKAPKFLVYNAKTLAEGVPSRFSGSGSGTDFTLTISSLQPEDFATYYCQHYYGPPTWTFGQGTKVEIKGGGGSGGGGSQVQLVQSGAEVKKPGASVKVSCKASGYTFTTYWMHWVRQAPGQGLEWMGVIDPSDSDTTYNQKFKGRVTMTRDTSTSTVYMELSSLRSEDTAVYYCTRSLDGYYDYWGQGTLVTVSSASTKGPSVFPLAPSSKSTSGGTAALGCLVKDYFPEPVTVSWNSGALTSGVHTFPAVLQSSGLYSLSSVVTVPSSSLGTQTYICNVNHKPSNTKVDKKVEPKSCDKTHTCPPCPAPEAQGGPSVFLFPPKPKDTLYITREPEVTCVVVDVSHEDPEVKFNWYVDGVEVHNAKTKPREEQYNSTYRVVSVLTVLHQDWLNGKEYKCQVSNKALPAPIEKTISKAKGQPREPQVYTLPPSRDELTKNQVSLTCLVKGFYPSDIAVEWESNGQPENNYKTTPPVLDSDGSFFLYSKLTVDKSRWQQGNVFSCSVMHEALHNHYTQKSLSLSPG
light: DIQMTQSPSSLSASVGDRVTITCRPTENIYSYLAWYQQKPGKAPKLLIYFARTLAEGVPSRFSGSGSGTDFTLTISSLQPEDFATYYCQHHYGTPWTFGGGTKVEIKRTVAAPSVFIFPPSDEQLKSGTASVVCLLNNFYPREAKVQWKVDNALQSGNSQESVTEQDSKDSTYSLSSTLTLSKADYEKHKVYACEVTHQGLSSPVTKSFNRGEC
notes: hu1C5F12E9-V8 IgG with an anti-IL4R scFv (huC2C1A1A1-V15, VH-VL) at the N-terminus of the heavy chain; AQQ and YTE already stand in the entry
As for B2, in assay [1], the EC50 turned out to be 41.6 pM. The molecule also came in with an IC50 in assay [2] of 204 pM.

B3: BSI-502-004 (bispecific antibody, human IgG1, kappa)
heavy: DIQMTQSPSSLSASVGDRVTITCRTSENIYSYLAWYQQKPGKAPKFLVYNAKTLAEGVPSRFSGSGSGTDFTLTISSLQPEDFATYYCQHYYGPPTWTFGQGTKVEIKGGGGSGGGGSGGGGSGGGGSEVQLVESGGGLVQPGGSLRLSCAASGFTFSTYGMSWVRQAPGKGLVWVATINSNGGSTSYPDSVKGRFTISRDNAKNTLYLQMNSLRAEDTAVYYCARFFRFRNAMDYWGQGTLVTVSSGGGGSGGGGSQVQLVQSGAEVKKPGASVKVSCKASGYTFTTYWMHWVRQAPGQGLEWMGVIDPSDSDTTYNQKFKGRVTMTRDTSTSTVYMELSSLRSEDTAVYYCTRSLDGYYDYWGQGTLVTVSSASTKGPSVFPLAPSSKSTSGGTAALGCLVKDYFPEPVTVSWNSGALTSGVHTFPAVLQSSGLYSLSSVVTVPSSSLGTQTYICNVNHKPSNTKVDKKVEPKSCDKTHTCPPCPAPEAQGGPSVFLFPPKPKDTLYITREPEVTCVVVDVSHEDPEVKFNWYVDGVEVHNAKTKPREEQYNSTYRVVSVLTVLHQDWLNGKEYKCQVSNKALPAPIEKTISKAKGQPREPQVYTLPPSRDELTKNQVSLTCLVKGFYPSDIAVEWESNGQPENNYKTTPPVLDSDGSFFLYSKLTVDKSRWQQGNVFSCSVMHEALHNHYTQKSLSLSPG
light: DIQMTQSPSSLSASVGDRVTITCRPTENIYSYLAWYQQKPGKAPKLLIYFARTLAEGVPSRFSGSGSGTDFTLTISSLQPEDFATYYCQHHYGTPWTFGGGTKVEIKRTVAAPSVFIFPPSDEQLKSGTASVVCLLNNFYPREAKVQWKVDNALQSGNSQESVTEQDSKDSTYSLSSTLTLSKADYEKHKVYACEVTHQGLSSPVTKSFNRGEC
notes: hu1C5F12E9-V8 IgG with an anti-IL4R scFv (VL-VH) at the N-terminus of the heavy chain; AQQ and YTE already stand in the entry
As for B3, in assay [1], the EC50 was determined as 34.6 pM. Further, in assay [2], the IC50 is 168 pM.

The term EC50 denotes the concentration giving half of the maximal effect. A word on the IC50: it is the concentration needed to halve the response being measured. Read a high IC50 as weaker potency in that assay.

The record behind these values is US20260109758A1 (BIOSION, published 2026).
